Test results as given in US20190352428A1 (Seagen, published 2019).
One block for each binder: values may come before it.

Columns and labels:
CD74 = biological target: T1, CD74 (UniProt P04233 1-296); experiment: FACS competition, Daudi cells; fold vs unmasked HuMab-CD74-011
T1 construct: whole, on cells; Target of HuMab-CD74-011
T1 sequence (looked up): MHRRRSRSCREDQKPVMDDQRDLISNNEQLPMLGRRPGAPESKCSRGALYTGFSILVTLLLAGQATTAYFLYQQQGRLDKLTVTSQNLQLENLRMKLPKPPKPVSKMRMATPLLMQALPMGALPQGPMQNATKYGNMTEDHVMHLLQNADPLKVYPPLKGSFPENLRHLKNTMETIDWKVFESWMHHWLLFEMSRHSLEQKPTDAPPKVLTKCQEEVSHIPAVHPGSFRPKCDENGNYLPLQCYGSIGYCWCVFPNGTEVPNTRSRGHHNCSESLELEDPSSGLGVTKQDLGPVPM
Description: (§1) To evaluate cell binding of masked antibodies, 2×10⁵ of indicated cells (Raji, Ramos, PC3, Daudi) were combined with fluorescently labeled parent antibody mixed with serial dilutions of competitor (masked antibody) in staining buffer (PBS, 2% FBS, 0.2% NaN3). Samples were incubated for 1 hour on ice and washed twice with ice-cold staining buffer. Labeled cells were examined by flow cytometry on a BD LSRII gated to exclude nonviable cells and analyzed using Flowing Software (Turku Centre for Biotechnology). The IC50 was calculated using GraphPad Prism 6.
(§2) Activity was tested using the hBU12 antibody, cAg-1, 1C1, HuMab-CD74-011, and an antibody against Antigen 2, designated hAg-2.

CD19 [1] = biological target: CD19 (UniProt P15391); experiment: cell-based or functional assay
CD19 [2] = biological target: CD19 (UniProt P15391); experiment: competition FACS, Raji cells; vs parent
CD19 [3] = biological target: CD19 (UniProt P15391); experiment: competition FACS, Raji cells; unit and quantity not given
CD19 [4] = biological target: T2, CD19 (UniProt P15391 20-556, limits assumed); experiment: FACS competition, Raji cells; fold vs unmasked hBU12ec
T2 construct: whole, on cells; Target of hBU12
T2 sequence (looked up): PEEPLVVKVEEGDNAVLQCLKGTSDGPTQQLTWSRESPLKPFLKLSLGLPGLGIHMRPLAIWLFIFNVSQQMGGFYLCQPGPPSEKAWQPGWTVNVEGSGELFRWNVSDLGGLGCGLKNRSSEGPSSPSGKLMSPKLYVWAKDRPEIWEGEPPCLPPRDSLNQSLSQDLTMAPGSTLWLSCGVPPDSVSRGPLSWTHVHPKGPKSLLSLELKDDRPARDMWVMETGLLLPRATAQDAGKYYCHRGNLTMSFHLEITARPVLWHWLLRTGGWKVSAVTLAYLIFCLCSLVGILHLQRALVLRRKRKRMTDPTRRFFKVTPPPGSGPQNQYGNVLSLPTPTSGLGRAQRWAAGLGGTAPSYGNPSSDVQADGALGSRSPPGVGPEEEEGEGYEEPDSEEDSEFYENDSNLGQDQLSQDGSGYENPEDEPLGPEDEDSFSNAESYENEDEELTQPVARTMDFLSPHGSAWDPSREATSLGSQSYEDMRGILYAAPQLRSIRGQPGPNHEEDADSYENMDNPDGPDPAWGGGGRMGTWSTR
Description: as §1, §2

CD19 [5] = biological target: T2, CD19; experiment: FACS competition, Raji cells; fold vs hBU12ec
Description: as §1
(§3) Four antibodies (hBU12 against CD19, anti-Antigen 1 antibody against Antigen 1 (cAg-1), 1C1 against EphA2 and HuMab CD74-011 against CD74) were tested using the coiled coil blocking domains. The antibody CD74 comprises a light chain (SEQ ID NO: 1) and a heavy chain (SEQ ID NO: 2). Sequences for A3B3, A4B4, CVel, antipO, and dHLX were N-terminally fused to the light and heavy chains of the antibodies. To test for binding, FACs-based competition assays were utilized to account for high concentrations of competitor necessary to displace the parent antibody and the results are listed in Tables 2-5. Other antibodies that can be conjugated to a coiled-coil peptide are SEQ ID NOs: 3-19. SEQ ID NO: 3 is the amino acid sequence of hBU12 heavy chain variable region, and SEQ ID NO: 4 is the amino acid sequence of hBU12 light chain variable region. […]

CD19 [6] = biological target: T2, CD19; experiment: cell-based or functional assay
CD19 [7] = biological target: T2, CD19; experiment: FACS competition with labeled parent hBU12, Raji cells
Description: as §1, §3

B1: CVel HuMab-CD74-011 (antibody)
heavy: EACGASTSVDELQAEVDQLEDENYALKTKVAQLRKKVEKLGSIPVSLRSGQVQLVESGGGVVQPGRSLRLSCAASGFTFSSYGMHWVRQAPDKGLEWVAVIWYDGSNKYYADSVKGRFTISRDNSKNTLYLQMNSLRAEDTAVYYCARGGTLVRGAMYGTDVWGQGTTVTVSS
light: EACGASTTVAQLEEKVKTLRAENYELKSEVQRLEEQVAQLGSIPVSLRSGDIQMTQSPSSLSASVGDRVTITCRASQGISSWLAWYQQKPEKAPKSLIYAASSLQSGVPSRFSGSGSGTDFTLTISSLQPEDFATYYCQQYNSYPLTFGGGTKVEIK
notes: not restated for this antibody
fold decrease in binding (CD74): 26 fold

B4: hBU12ec-1910(2) (antibody, V domains shown)
VH: QVQLQESGPGLVKPSQTLSLTCTVSGGSISTSGMGVGWIRQHPGKGLEWIGHIWWDDDKRYNPALKSRVTISVDTSKNQFSLKLSSVTAADTAVYYCARMELWSYYFDYWGQGTLVTVSS
VL: EIVLTQSPATLSLSPGERATLSCSASSSVSYMHWYQQKPGQAPRLLIYDTSKLASGIPARFSGSGSGTDFTLTISSLEPEDVAVYYCFQGSVYPFTFGQGTKLEIKR
modifications: PBD drug-linker on the engineered cysteine at position 239 of the heavy chain constant region
Cytotoxicity Data IC50 (ng/mL), Ramos cells (CD19 [6]): 0.1 ng/mL

More lines, main results first:

Binding Data (fold decrease per paragraph 159) (CD19 [2]): > 160 fold
Binding Data (CD19 [3]): > 600
B2: Cvel-1910(2) (antibody)
VH: EACGASTSVDELQAEVDQLEDENYALKTKVAQLRKKVEKLGSIPVSLRSGQVQLQESGPGLVKPSQTLSLTCTVSGGSISTSGMGVGWIRQHPGKGLEWIGHIWWDDDKRYNPALKSRVTISVDTSKNQFSLKLSSVTAADTAVYYCARMELWSYYFDYWGQGTLVTVSS
VL: EACGASTTVAQLEEKVKTLRAENYELKSEVQRLEEQVAQLGSIPVSLRSGEIVLTQSPATLSLSPGERATLSCSASSSVSYMHWYQQKPGQAPRLLIYDTSKLASGIPARFSGSGSGTDFTLTISSLEPEDVAVYYCFQGSVYPFTFGQGTKLEIKR
modifications: PBD drug-linker on the engineered cysteine at position 239 of the heavy chain constant region
Cytotoxicity Data Fold Change, Ramos cells (CD19 [1]): 1320 fold
Cytotoxicity Data IC50 (ng/mL), Ramos cells (CD19 [1]): 100 ng/mL

fold decrease in binding (CD19 [4]): > 300 fold
Fold Change (CD19 [5]): > 300 fold
B3: Cvel hBU12ec (antibody)
VH: B2 VH
VL: B2 VL
notes: the linker/protease site is not restated for this antibody; S239C constant region

IC50 (CD19 [7]): 3.6 nM
B5: hBU12ec (antibody, V domains shown)
VH: B4 VH
VL: B4 VL
notes: Anti-CD19 antibody; also called parent antibody
